Measured values from publication PMC4434323.

What was measured:
[1] = target: odd-2 (C34H3.2) (Caenorhabditis elegans) (UniProt Q9N5X6)
[2] = target: T1, B0310.2 (B0310.2) (Caenorhabditis elegans) (UniProt Q10938)
T1 sequence: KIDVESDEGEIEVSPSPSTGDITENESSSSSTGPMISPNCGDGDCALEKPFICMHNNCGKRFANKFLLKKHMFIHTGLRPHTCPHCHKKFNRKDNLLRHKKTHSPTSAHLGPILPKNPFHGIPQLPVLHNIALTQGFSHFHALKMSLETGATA

[3] = target: T2, ztf-19 (T27B1.2) (Caenorhabditis elegans) (UniProt Q22829)
T2 sequence: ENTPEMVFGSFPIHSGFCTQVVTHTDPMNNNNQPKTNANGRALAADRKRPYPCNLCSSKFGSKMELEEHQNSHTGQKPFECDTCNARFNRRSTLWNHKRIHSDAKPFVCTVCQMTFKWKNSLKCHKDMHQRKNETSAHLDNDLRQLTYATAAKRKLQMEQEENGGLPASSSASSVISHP

[4] = target: T3, die-1 (C18D1.1) (Caenorhabditis elegans) (UniProt A0A131MCR4)
T3 sequence: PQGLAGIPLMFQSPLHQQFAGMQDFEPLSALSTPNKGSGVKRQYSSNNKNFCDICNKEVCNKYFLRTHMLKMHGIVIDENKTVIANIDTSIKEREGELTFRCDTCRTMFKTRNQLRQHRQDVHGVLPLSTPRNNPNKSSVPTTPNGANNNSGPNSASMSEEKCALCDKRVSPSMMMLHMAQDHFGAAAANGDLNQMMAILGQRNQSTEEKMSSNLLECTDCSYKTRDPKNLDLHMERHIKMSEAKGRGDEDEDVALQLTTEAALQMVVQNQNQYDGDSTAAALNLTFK

[5] = target: T4, ztf-29 (Y66D12A.12) (Caenorhabditis elegans) (UniProt Q95Q03)
T4 sequence: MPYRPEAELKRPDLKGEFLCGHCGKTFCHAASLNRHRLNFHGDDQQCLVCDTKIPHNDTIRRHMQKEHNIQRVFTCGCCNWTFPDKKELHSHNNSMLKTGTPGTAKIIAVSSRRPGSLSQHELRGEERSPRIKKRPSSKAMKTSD

[6] = target: T5, ham-2 (C07A12.1) (Caenorhabditis elegans) (UniProt H2KYH4)
T5 sequence: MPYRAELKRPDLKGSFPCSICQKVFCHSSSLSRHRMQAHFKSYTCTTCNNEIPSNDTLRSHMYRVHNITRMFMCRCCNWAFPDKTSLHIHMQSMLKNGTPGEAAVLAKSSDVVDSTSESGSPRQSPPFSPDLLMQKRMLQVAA

[7] = target: egrh-1 (C27C12.2) (Caenorhabditis elegans) (UniProt Q18250)
[8] = target: T6, ZK337.2 (ZK337.2) (Caenorhabditis elegans) (UniProt O46016)
T6 sequence: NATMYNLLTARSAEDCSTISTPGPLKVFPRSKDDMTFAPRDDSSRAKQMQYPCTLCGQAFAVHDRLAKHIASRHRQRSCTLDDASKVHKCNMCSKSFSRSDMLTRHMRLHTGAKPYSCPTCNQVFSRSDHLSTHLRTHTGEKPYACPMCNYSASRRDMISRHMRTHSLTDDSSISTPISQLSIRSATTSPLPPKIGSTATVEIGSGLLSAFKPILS

[9] = target: ZC328.2 (ZC328.2) (Caenorhabditis elegans) (UniProt O02050)
[10] = target: T7, zip-3 (W07G1.3) (Caenorhabditis elegans) (UniProt Q9XUK2)
T7 sequence: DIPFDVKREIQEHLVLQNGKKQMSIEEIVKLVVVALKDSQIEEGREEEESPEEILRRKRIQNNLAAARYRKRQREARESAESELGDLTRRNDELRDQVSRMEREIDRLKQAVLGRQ

[11] = target: T8, atf-5 (T04C10.4) (Caenorhabditis elegans) (UniProt Q22156)
T8 sequence: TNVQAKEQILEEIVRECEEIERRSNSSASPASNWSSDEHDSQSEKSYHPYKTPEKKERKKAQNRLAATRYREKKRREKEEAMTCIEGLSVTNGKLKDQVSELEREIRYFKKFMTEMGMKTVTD

[12] = target: atf-7 (C07G2.2) (Caenorhabditis elegans) (UniProt Q86MD3)
atf-7 (C07G2.2) (Caenorhabditis elegans), sequence (Q86MD3 339-508): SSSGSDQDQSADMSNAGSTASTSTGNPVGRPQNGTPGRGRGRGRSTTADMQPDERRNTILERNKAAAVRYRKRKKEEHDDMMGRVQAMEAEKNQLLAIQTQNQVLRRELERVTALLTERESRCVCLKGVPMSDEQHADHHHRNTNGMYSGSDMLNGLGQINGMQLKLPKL

egrh-1 (C27C12.2) (Caenorhabditis elegans), sequence (Q18250 324-461): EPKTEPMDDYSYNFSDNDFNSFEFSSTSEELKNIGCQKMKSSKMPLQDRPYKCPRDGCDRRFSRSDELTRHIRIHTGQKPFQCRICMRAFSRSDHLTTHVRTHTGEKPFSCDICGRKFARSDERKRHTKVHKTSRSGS
odd-2 (C34H3.2) (Caenorhabditis elegans), sequence (Q9N5X6 74-252): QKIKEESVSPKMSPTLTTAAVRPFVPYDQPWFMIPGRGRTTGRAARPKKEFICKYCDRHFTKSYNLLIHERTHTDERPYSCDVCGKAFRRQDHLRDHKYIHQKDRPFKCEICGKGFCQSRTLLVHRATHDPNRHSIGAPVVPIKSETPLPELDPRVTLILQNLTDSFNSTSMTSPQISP
ZC328.2 (ZC328.2) (Caenorhabditis elegans), sequence (O02050 entry or part of it): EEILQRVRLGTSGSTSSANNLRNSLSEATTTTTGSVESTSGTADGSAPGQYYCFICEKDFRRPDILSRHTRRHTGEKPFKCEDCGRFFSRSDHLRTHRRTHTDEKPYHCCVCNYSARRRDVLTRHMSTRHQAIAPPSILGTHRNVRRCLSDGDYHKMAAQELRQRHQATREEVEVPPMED

Sequence: CCAGTAGC (double strand) [8-mer CCAGTAGC]
- binding signal (PBM E-score (-0.5 to 0.5)) [1]: 0.492

Sequence: ATGAGGTA (double strand) [8-mer ATGAGGTA]
- binding signal (PBM E-score (-0.5 to 0.5)) [2]: 0.484

Sequence: ACCTCAAA (double strand) [8-mer ACCTCAAA]
- binding signal (PBM E-score (-0.5 to 0.5)) [2]: 0.481

Sequence: AGTTTAAA (double strand) [8-mer AGTTTAAA]
- binding signal (PBM E-score (-0.5 to 0.5)) [3]: 0.495
- binding signal (PBM E-score (-0.5 to 0.5)) [4]: 0.49

Sequence: AAAGCTTA (double strand) [8-mer AAAGCTTA]
- binding signal (PBM E-score (-0.5 to 0.5)) [5]: 0.485
- binding signal (PBM E-score (-0.5 to 0.5)) [6]: 0.481

Sequence: CGCCCCCA (double strand) [8-mer CGCCCCCA]
- binding signal (PBM E-score (-0.5 to 0.5)) [7]: 0.493
- binding signal (PBM E-score (-0.5 to 0.5)) [8]: 0.494

Sequence: TGAGGTAA (double strand) [8-mer TGAGGTAA]
- binding signal (PBM E-score (-0.5 to 0.5)) [2]: 0.49

Sequence: GCTACTGA (double strand) [8-mer GCTACTGA]
- binding signal (PBM E-score (-0.5 to 0.5)) [1]: 0.486

Sequence: ATCCCTCA (double strand) [8-mer ATCCCTCA]
- binding signal (PBM E-score (-0.5 to 0.5)) [2]: 0.482

Sequence: ATGAGGGA (double strand) [8-mer ATGAGGGA]
- binding signal (PBM E-score (-0.5 to 0.5)) [2]: 0.478

Sequence: ATTTTAAA (double strand) [8-mer ATTTTAAA]
- binding signal (PBM E-score (-0.5 to 0.5)) [4]: 0.496

Sequence: TACCTCAA (double strand) [8-mer TACCTCAA]
- binding signal (PBM E-score (-0.5 to 0.5)) [2]: 0.495

Sequence: CGGTAGCA (double strand) [8-mer CGGTAGCA]
- binding signal (PBM E-score (-0.5 to 0.5)) [1]: 0.496

Sequence: GTGAGGTA (double strand) [8-mer GTGAGGTA]
- binding signal (PBM E-score (-0.5 to 0.5)) [2]: 0.485

Sequence: ACCTCAAT (double strand) [8-mer ACCTCAAT]
- binding signal (PBM E-score (-0.5 to 0.5)) [2]: 0.49

Sequence: CCCCCGCG (double strand) [8-mer CCCCCGCG]
- binding signal (PBM E-score (-0.5 to 0.5)) [9]: 0.488
- binding signal (PBM E-score (-0.5 to 0.5)) [7]: 0.485

Sequence: GCCCCCAC (double strand) [8-mer GCCCCCAC]
- binding signal (PBM E-score (-0.5 to 0.5)) [7]: 0.486

Sequence: GTTTTAAA (double strand) [8-mer GTTTTAAA]
- binding signal (PBM E-score (-0.5 to 0.5)) [4]: 0.478

Sequence: CCCACGCG (double strand) [8-mer CCCACGCG]
- binding signal (PBM E-score (-0.5 to 0.5)) [9]: 0.49
- binding signal (PBM E-score (-0.5 to 0.5)) [7]: 0.486

Sequence: CGCTACCG (double strand) [8-mer CGCTACCG]
- binding signal (PBM E-score (-0.5 to 0.5)) [1]: 0.488

Sequence: ACGGAAGC (double strand) [8-mer ACGGAAGC]
- binding signal (PBM E-score (-0.5 to 0.5)) [1]: 0.485

Sequence: CAGTAGCG (double strand) [8-mer CAGTAGCG]
- binding signal (PBM E-score (-0.5 to 0.5)) [1]: 0.488

Sequence: AAGCTTAT (double strand) [8-mer AAGCTTAT]
- binding signal (PBM E-score (-0.5 to 0.5)) [5]: 0.488
- binding signal (PBM E-score (-0.5 to 0.5)) [6]: 0.487

Sequence: CGCCCCCG (double strand) [8-mer CGCCCCCG]
- binding signal (PBM E-score (-0.5 to 0.5)) [9]: 0.489
- binding signal (PBM E-score (-0.5 to 0.5)) [7]: 0.496
- binding signal (PBM E-score (-0.5 to 0.5)) [8]: 0.49

Sequence: TTTAAAAA (double strand) [8-mer TTTAAAAA]
- binding signal (PBM E-score (-0.5 to 0.5)) [4]: 0.48

Sequence: AACAGTAG (double strand) [8-mer AACAGTAG]
- binding signal (PBM E-score (-0.5 to 0.5)) [1]: 0.492

Sequence: ATGCTTAA (double strand) [8-mer ATGCTTAA]
- binding signal (PBM E-score (-0.5 to 0.5)) [6]: 0.48

Sequence: ATGACGTA (double strand) [8-mer ATGACGTA]
- binding signal (PBM E-score (-0.5 to 0.5)) [10]: 0.49
- binding signal (PBM E-score (-0.5 to 0.5)) [11]: 0.459
- binding signal (PBM E-score (-0.5 to 0.5)) [12]: 0.498

Sequence: ACTTTAAA (double strand) [8-mer ACTTTAAA]
- binding signal (PBM E-score (-0.5 to 0.5)) [4]: 0.493

Sequence: ATGACGTC (double strand) [8-mer ATGACGTC]
- binding signal (PBM E-score (-0.5 to 0.5)) [10]: 0.493
- binding signal (PBM E-score (-0.5 to 0.5)) [11]: 0.468
- binding signal (PBM E-score (-0.5 to 0.5)) [12]: 0.497

Sequence: TGCTAGCA (double strand) [8-mer TGCTAGCA]
- binding signal (PBM E-score (-0.5 to 0.5)) [6]: 0.48
